Two molecules from patent US20120164153A1 (GOVERNMENT OF THE UNITED STATES AS REPRESENTED BY THE …, published 2012) can be followed below.

Test [1] deals with Zaire ebolavirus (ZEBOV) GP (Zaire ebolavirus) (UniProt Q05320). As to the kind of experiment: cell-based or functional assay.
For test [2], the target named is T1, Zaire ebolavirus (ZEBOV) GP (Zaire ebolavirus, UniProt Q05320 33-676).
T1 construct: whole, on cells; also called Zaire GP
T1 sequence: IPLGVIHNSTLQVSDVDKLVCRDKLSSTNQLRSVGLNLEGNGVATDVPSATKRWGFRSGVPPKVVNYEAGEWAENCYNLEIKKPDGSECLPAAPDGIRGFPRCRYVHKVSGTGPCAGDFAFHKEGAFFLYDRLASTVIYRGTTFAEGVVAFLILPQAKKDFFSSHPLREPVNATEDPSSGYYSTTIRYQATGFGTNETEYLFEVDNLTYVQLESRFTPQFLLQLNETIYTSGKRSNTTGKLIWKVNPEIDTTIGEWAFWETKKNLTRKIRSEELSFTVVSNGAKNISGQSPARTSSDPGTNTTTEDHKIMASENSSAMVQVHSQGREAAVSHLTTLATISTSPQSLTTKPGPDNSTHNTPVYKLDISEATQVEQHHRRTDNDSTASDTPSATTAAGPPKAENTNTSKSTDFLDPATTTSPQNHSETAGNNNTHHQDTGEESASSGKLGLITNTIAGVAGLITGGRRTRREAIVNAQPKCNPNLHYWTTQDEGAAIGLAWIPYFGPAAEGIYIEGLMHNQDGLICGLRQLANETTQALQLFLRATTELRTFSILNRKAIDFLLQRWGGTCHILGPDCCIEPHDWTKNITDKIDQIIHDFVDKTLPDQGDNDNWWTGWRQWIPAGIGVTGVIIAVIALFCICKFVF
As to the kind of experiment: flow cytometry on infected Vero cells (FIG. 15). For orientation: Flow cytometry measures light scatter and fluorescence of single cells or particles in a stream.

In test [1], monoclonal antibody KZ52 had a neutralization of Zaire GP-pseudotyped VSV on 293 cells of 90%.

B1: monoclonal antibody 16F6 (murine IgG1) (antibody, V domains shown)
VH: EVQLVESGGGLVTPGGSLKLSCAASGFAFNYYDMFWVRQNTEKRLEWVAYINSGGGNTYYPDTVKGRFTISRDNAKKTLFLQMSSLRSEDTAMYYCARQLYGNSFFDYWGQGTSLTVSA
VL: DIVMTQSHKFMSTSVGDRVTITCKASQDVTTAVAWYQQKPGHSPKLLIYWASTRHTGVPDRFTGSGSGTDFTLTLNSVQAEDLALYYCQQHYSTPLTFGAGTKLELK
notes: also called mAb 16F6; MAb 16F6
Consider B1, for which the binding result in test [2] is “no binding”.
